Experimental data: paper PMC4151078, “Visualization of the physical and functional interaction between hMYH and hRad9 by Dronpa bimolecular fluorescence complementation” (BMC Molecular Biology, 2014)

Legend:
[1] = biological target: T1, GST-hMYH-ΔC (amino acids 1-487) (human, UniProt Q9UIF7-1 1-487); experiment: pull-down; GST or GST-hMYH fusion on glutathione-Sepharose 4B beads, purified His-hRad9 added; 50 mM Tris-HCl pH 7.5, 150 mM NaCl, 1 mM EDTA, 0.3 mM DTT, 0.1% NP-40; 3 h at 4°C; blot with anti-GST and anti-His; conditions: both partners purified
T1 construct: cloned into pGEX-4T1; source: bacterially expressed and purified
T1 sequence (looked up): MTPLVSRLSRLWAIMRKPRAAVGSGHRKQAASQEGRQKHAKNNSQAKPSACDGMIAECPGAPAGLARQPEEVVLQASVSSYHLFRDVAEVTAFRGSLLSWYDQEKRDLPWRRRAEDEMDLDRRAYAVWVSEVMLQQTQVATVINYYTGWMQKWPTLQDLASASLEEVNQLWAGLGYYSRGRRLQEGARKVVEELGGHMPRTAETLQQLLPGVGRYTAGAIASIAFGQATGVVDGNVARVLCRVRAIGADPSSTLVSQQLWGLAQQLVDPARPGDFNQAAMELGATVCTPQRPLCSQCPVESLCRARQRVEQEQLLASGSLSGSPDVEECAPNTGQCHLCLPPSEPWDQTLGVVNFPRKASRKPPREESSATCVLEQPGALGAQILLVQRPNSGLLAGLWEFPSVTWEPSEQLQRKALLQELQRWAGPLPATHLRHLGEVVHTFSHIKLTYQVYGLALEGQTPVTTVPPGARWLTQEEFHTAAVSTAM

[2] = biological target: T2, GST-hMYH (full-length, amino acids 1-547) (human, UniProt Q9UIF7-1 1-546); experiment: as above; conditions: both partners purified
T2 construct: human MutY glycosylase homolog (hMYH), NM_012222; printed as full-length, amino acids 1-547; cloned into pGEX-4T1; also called GST-tagged hMYH wild type; source: bacterially expressed and purified
T2 sequence (looked up): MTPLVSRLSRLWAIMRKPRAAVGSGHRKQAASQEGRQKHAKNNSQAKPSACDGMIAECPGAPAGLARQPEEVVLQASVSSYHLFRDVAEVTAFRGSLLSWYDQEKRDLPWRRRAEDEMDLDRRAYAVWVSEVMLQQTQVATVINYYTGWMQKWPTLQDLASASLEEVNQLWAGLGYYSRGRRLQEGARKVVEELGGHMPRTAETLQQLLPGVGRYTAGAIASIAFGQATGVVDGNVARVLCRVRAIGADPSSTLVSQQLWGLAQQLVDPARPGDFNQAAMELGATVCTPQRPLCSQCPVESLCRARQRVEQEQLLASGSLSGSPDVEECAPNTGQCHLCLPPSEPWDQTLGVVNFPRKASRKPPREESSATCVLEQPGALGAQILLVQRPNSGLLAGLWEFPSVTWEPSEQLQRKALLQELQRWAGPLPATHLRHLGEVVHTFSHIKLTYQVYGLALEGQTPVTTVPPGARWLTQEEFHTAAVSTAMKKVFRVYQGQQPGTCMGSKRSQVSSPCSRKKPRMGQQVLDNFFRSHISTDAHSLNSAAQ

B1: His-hRad9 (natural protein, human, UniProt Q99638 1-391, looked up)
chain: MKCLVTGGNVKVLGKAVHSLSRIGDELYLEPLEDGLSLRTVNSSRSAYACFLFAPLFFQQYQAATPGQDLLRCKILMKSFLSVFRSLAMLEKTVEKCCISLNGRSSRLVVQLHCKFGVRKTHNLSFQDCESLQAVFDPASCPHMLRAPARVLGEAVLPFSPALAEVTLGIGRGRRVILRSYHEEEADSTAKAMVTEMCLGEEDFQQLQAQEGVAITFCLKEFRGLLSFAESANLNLSIHFDAPGRPAIFTIKDSLLDGHFVLATLSDTDSHSQDLGSPERHQPVPQLQAHSTPHPDDFANDDIDSYMIAMETTIGNEGSRVLPSISLSPGPQPPKSPGPHSEEEDEAEPSTVPGTPPPKKFRSLFFGSILAPVRSPQGPSPVLAEDSEGEG
notes: human Rad9 (hRad9), NM_004584; also called purified His-hRad9; His-purified hRad9 protein; source: bacterially expressed and purified
- binding result [1]: binds
- binding result [2]: binds
